Data: publication PMC6237851, “A tumor-targeted trimeric 4-1BB-agonistic antibody induces potent anti-tumor immunity without systemic toxicity” (Nature Communications, 2018)

Target: the molecule itself
Assay: SDS-PAGE, reducing against non-reducing; m4-1BBL alone; about 40 kDa in reducing and about 70 kDa in non-reducing conditions (Supplementary Figure 3a)

B1: recombinant soluble mouse 4-1BBL (ligand, UniProt P41274 104-309, looked up)
chain: RTEPRPALTITTSPNLGTRENNADQVTPVSHIGCPNTTQQGSPVFAKLLAKNQASLCNTTLNWHSQDGAGSSYLSQGLRYEEDKKELVVDSPGLYYVFLELKLSPTFTNTGHKVQGWVSLVLQAKPQVDDFDNLALTVELFPCSMENKLVDRSWSQLLLLKAGHRLSVGLRAYLHGAQDAYRDWELSYPNTTSFGLFLVKPDNPWE
notes: 4-1BB ligand (4-1BBL, TNFSF9), mouse, recombinant soluble form; For the RICS imaging it was labelled with CF488A (Mix-n-Stain kit); also called m4-1BBL; 4-1BB-Ligand; source: bought: Biolegend (cat#754402)
For B1, which “stoichiometry N” value is on record?
Its value is 3.
